Assay results published in patent US20250361282A1.

Key:
rat NPR-A (rat) = rat NPR-A (rat) (UniProt P18910); experiment: cell-based or functional assay
rat NPR-B (rat) = rat NPR-B (rat) (UniProt P16067); experiment: cell-based or functional assay
Sequence of rat NPR-B (rat) (P16067 17-1047): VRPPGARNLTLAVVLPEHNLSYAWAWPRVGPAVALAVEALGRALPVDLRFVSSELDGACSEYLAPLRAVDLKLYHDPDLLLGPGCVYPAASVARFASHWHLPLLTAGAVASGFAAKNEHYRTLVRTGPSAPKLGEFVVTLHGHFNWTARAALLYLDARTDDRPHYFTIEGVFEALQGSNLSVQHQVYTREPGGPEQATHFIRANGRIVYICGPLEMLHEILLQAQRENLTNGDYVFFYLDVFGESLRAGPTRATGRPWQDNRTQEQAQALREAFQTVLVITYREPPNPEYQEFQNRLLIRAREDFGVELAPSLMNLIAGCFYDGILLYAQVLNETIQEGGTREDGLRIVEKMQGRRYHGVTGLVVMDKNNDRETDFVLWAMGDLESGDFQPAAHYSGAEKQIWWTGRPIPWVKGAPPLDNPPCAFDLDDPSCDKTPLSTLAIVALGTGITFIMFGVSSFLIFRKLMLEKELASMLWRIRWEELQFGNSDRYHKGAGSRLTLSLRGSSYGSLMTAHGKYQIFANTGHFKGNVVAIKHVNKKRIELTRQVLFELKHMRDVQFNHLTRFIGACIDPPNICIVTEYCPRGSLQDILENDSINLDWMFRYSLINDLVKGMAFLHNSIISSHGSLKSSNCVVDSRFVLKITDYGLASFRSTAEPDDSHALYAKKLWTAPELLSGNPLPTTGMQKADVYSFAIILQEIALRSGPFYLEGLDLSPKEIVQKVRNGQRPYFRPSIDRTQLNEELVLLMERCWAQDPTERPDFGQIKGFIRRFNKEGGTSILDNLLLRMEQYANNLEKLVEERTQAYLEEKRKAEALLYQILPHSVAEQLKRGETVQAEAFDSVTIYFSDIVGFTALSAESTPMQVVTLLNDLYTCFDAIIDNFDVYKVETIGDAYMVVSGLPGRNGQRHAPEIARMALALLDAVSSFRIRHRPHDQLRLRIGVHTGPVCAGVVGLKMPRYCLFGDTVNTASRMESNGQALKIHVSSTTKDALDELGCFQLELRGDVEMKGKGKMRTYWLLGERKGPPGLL

Sequence of rat NPR-A (rat) (P18910 29-1057): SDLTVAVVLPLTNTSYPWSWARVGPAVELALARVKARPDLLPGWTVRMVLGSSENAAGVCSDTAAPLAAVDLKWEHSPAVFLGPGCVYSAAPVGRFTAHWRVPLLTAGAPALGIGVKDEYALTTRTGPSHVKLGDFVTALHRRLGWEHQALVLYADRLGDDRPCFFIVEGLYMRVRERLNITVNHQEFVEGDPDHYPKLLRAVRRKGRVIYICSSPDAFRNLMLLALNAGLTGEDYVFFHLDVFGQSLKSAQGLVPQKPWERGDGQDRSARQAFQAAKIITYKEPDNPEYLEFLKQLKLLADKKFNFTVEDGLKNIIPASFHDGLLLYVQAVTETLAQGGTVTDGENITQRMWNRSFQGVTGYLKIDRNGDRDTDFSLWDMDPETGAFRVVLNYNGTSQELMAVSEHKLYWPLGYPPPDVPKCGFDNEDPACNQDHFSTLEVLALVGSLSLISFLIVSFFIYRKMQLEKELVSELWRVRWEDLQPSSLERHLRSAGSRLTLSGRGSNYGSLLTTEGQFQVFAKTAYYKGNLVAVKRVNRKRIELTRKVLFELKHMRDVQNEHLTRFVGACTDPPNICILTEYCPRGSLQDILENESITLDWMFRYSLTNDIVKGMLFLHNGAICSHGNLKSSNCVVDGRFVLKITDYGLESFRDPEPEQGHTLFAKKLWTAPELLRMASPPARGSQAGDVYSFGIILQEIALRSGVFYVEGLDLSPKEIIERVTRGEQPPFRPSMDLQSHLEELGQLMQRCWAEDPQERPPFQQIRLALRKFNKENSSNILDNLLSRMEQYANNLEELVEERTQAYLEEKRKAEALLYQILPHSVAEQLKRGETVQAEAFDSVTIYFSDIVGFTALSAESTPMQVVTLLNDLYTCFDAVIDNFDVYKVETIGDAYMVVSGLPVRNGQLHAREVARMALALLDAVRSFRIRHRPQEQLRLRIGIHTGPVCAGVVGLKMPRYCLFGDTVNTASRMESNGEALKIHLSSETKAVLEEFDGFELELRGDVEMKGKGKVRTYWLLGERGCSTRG

EC50, fluorescence signal of rat NPR-A / CNGA2 (cGMP biosensor) / GCaMP6 CHO reporter cells (rat NPR-A (rat)) | EC50, luminescence signal of rat NPR-B reporter cells (rat NPR-B (rat)) | Substance
0.22 nM | – | ANP (Bachem, H-2100) (from UniProt P01161 123-150) (peptide)
2.9 nM | – | BNP (Bachem, H-5968) (from UniProt P13205 90-121) (peptide)
– | 0.024 nM | CNP (Bachem, H-1296) (from UniProt P23582 105-126) (peptide)
